Assay results: patent publication US20230241072A1, “ANTHRACYCLINE DERIVATIVES” (ALMAC DISCOVERY LIMITED, priority 2019, published 2023)
One block for each binder: values may come before it.

Target: ROR1 on the surface of human cancer cells (human) (UniProt Q01973)
Experiment: cell-based or functional assay

ROR1 targeting/2V non-targeting window, 697 cells: 1.2 fold | ROR1 targeting/2V non-targeting window, Kasumi-2 cells: 18 fold | ROR1 targeting/2V non-targeting window, MHH-ES1 cells: 1.1 fold | ROR1 targeting/2V non-targeting window, PA-1 cells: 73 fold
B1: P3A1hFc-PEG4-vc-PAB-EDA-PNU (Fc fusion, not shown: a dimerising Fc or GST)
chain: TRVDQTPRTATKETGESLTINCVLTDTSYGLYSTSWFRKNPGTTDWERMSIGGRYVESVNKGAKSFSLRIKDLTVADSATYYCKAREARHPWLRQWYDGAGTVLTVNGGGGSGGGGSGGGGS
modifications: MA-PEG4-vc-PAB-EDA-PNU159682 on Cys 239 (EU) of the Fc
IC50 (nM) 96 h, cell viability (Cell Titre Glo), 697 cells: 52 nM | IC50 (nM) 96 h, cell viability (Cell Titre Glo), Kasumi-2 cells: 3.2 nM | IC50 (nM) 96 h, cell viability (Cell Titre Glo), MHH-ES1 cells: 24 nM | IC50 (nM) 96 h, cell viability (Cell Titre Glo), PA-1 cells: 0.1 nM

ROR1 targeting/2V non-targeting window, 697 cells: 4 fold | ROR1 targeting/2V non-targeting window, Kasumi-2 cells: 43 fold | ROR1 targeting/2V non-targeting window, MHH-ES1 cells: 8.4 fold | ROR1 targeting/2V non-targeting window, PA-1 cells: 360 fold
B2: P3A1hFc-PEG4-va-EDA-PNU (Fc fusion, not shown: a dimerising Fc or GST)
chain: B1 chain
modifications: MA-PEG4-va-EDA-PNU159682 on Cys 239 (EU) of the Fc
IC50 (nM) 96 h, cell viability (Cell Titre Glo), 697 cells: 61 nM | IC50 (nM) 96 h, cell viability (Cell Titre Glo), Kasumi-2 cells: 2.3 nM | IC50 (nM) 96 h, cell viability (Cell Titre Glo), MHH-ES1 cells: 18 nM | IC50 (nM) 96 h, cell viability (Cell Titre Glo), PA-1 cells: 0.15 nM

B3: P3A1hFc(442)-PEG4-va-EDA-PNU (Fc fusion, not shown: a dimerising Fc or GST)
chain: B1 chain
modifications: MA-PEG4-va-EDA-PNU159682 on Cys 442 (EU) of the Fc
IC50 (nM) 96 h, cell viability (Cell Titre Glo), Kasumi-2 cells: 9.1 nM | IC50 (nM) 96 h, cell viability (Cell Titre Glo), MHH-ES1 cells: 37.5 nM | IC50 (nM) 96 h, cell viability (Cell Titre Glo), PA-1 cells: 0.025 nM
